IntAct's records for PubMed 9468139

B1: Retinoblastoma-associated protein (Homo sapiens), P06400 (parent)
chain: MPPKTPRKTAATAAAAAAEPPAPPPPPPPEEDPEQDSGPEDLPLVRLEFEETEEPDFTALCQKLKIPDHVRERAWLTWEKVSSVDGVLGGYIQKKKELWGICIFIAAVDLDEMSFTFTELQKNIEISVHKFFNLLKEIDTSTKVDNAMSRLLKKYDVLFALFSKLERTCELIYLTQPSSSISTEINSALVLKVSWITFLLAKGEVLQMEDDLVISFQLMLCVLDYFIKLSPPMLLKEPYKTAVIPINGSPRTPRRGQNRSARIAKQLENDTRIIEVLCKEHECNIDEVKNVYFKNFIPFMNSLGLVTSNGLPEVENLSKRYEEIYLKNKDLDARLFLDHDKTLQTDSIDSFETQRTPRKSNLDEEVNVIPPHTPVRTVMNTIQQLMMILNSASDQPSENLISYFNNCTVNPKESILKRVKDIGYIFKEKFAKAVGQGCVEIGSQRYKLGVRLYYRVMESMLKSEEERLSIQNFSKLLNDNIFHMSLLACALEVVMATYSRSTSQNLDSGTDLSFPWILNVLNLKAFDFYKVIESFIKAEGNLTREMIKHLERCEHRIMESLAWLSDSPLFDLIKQSKDREGPTDHLESACPLNLPLQNNHTAADMYLSPVRSPKKKGSTTRVNSTANAETQATSAFQTQKPLKSTSLSLFYKKVYRLAYLRLNTLCERLLSEHPELEHIIWTLFQHTLQNEYELMRDRHLDQIMMCSMYGICKVKNIDLKFKIIVTAYKDLPHAVQETFKRVLIKEEEYDSIIVFYNSVFMQRLKTNILQYASTRPPTLSPIPHIPRSPYKFPSSPLRIPGGNIYISPLKSPYKISEGLPTPTKMTPRSRILVSIGESFGTSEKFQKINQMVCNSDRVLKRSAEGSNPPKPLKKLRFDIEGSDEADGSKHLPGESKFQQKLAEMTSTRTRMQKQKMNDSMDTSNKEEK

Variants of: B1
Settings: with hdac1_human HDAC1, Q13547
Chain of hdac1_human HDAC1, Q13547 (Q13547 whole entry): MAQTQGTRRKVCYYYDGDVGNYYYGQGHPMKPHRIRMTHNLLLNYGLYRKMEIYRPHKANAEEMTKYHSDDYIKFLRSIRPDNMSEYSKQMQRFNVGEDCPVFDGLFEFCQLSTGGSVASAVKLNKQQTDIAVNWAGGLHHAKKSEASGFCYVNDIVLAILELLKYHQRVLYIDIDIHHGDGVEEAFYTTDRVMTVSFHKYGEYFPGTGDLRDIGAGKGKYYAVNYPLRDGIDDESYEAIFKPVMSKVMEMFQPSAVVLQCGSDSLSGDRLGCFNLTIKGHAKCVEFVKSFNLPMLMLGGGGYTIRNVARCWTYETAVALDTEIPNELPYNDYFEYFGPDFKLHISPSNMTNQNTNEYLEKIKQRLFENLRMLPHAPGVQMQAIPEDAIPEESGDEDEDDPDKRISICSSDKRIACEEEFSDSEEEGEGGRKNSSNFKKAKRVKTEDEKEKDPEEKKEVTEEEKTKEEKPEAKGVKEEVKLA

effect of a mutation on the interaction	Variant
decreasing interaction	C706F
